Paper PMC4437529

Assays:
Assay in all cases: purified protein
Assay type in all cases: biochemical, Trichomonas vaginalis
Settings in all cases: NADPH co-substrate, 100 mM potassium phosphate pH 5.5, 37 °C
[1] = test system: Cc1cc2nc3c(=O)[nH]c(=O)nc-3n(C[C@H](O)[C@H](O)[C@H](O)COP(=O)(O)OP(=O)(O)OC[C@H]3O[C@@H](n4cnc5c(N)ncnc54)[C@H](O)[C@@H]3O)c2cc1C
[2] = test system: Cc1cc2nc3c(=O)[nH]c(=O)nc-3n(C[C@H](O)[C@H](O)[C@H](O)COP(=O)(O)O)c2cc1C
[3] = test system: Cc1cc2nc3c(=O)[nH]c(=O)nc-3n(C[C@H](O)[C@H](O)[C@H](O)CO)c2cc1C

Substance	Km [1] [µM]	Km [2] [µM]	Km [3] [µM]
Flavin reductase 1 (FR1) (Trichomonas vaginalis G3)	16.5 ± 2.5	10 ± 1.4	
Flavin reductase 5 (FR5) (Trichomonas vaginalis G3)	267.4 ± 21.6	186.9 ± 30.3	94.4 ± 11.5
Flavin reductase 6 (FR6) (Trichomonas vaginalis G3)	192.1 ± 12.2	160 ± 23.9	97.5 ± 28.8
